This is an account of results in paper PMC9274004, “Deciphering the Molecular Interaction Between the Adhesion G Protein-Coupled Receptor ADGRV1 and its PDZ-Containing Regulator PDZD7” (Frontiers in Molecular Biosciences, 2022).

“Also recorded” adds a separate entry of the source.

Data set [1] in a line: Analytical UltraCentrifugation of unbound P1P2. The format is physicochemical. Conditions: AUC, 10°C, P1P2 0.4 mg/ml, Phosphate Buffer pH 6.5 (50 mM). On the procedure: AUC experiments were performed at 10°C using an analytical Beckman Coulter Optima ultracentrifuge equipped with a AN50-Ti rotor. The P1P2 sample was prepared at 0.4 mg/ml in Phosphate Buffer pH 6.5 (50 mM). For the complex, 10 μl of pH-adjusted ADGRV1pbm peptide (13,7 mM) were added to 300 μl of P1P2 sample. Interference profiles were analyzed with SEDFIT.

Data set [2] in a line: nanoDSF thermostability of unbound PDZD7 constructs. The format is physicochemical. Conditions: MES pH6 (50 mM), micromolar concentrations, without ligand. On the procedure: (§1) NanoDSF experiments were performed on a Prometheus (Nanotemper) spectrometer using Prometheus NT.48 Series nanoDSF Grade High Sensitivity Capillaries. All samples were prepared in MES pH6 (50 mM) at micromolar concentrations. For the complexes, ADGRV1pbm peptide was added at a final concentration of 756 μM, diluting the samples by 5%.
On the technique in general: DSF heats the sample and reads unfolding from a dye or from intrinsic fluorescence.

Data set [3] is described as follows: SAXS geometrical parameters of unbound PDZ tandem. The format is physicochemical. Conditions: without ligand, Phosphate Buffer 50 mM pH 6.5, NaCl 300 mM, TCEP 0.5 mM. How it is done: X-ray scattering data were collected at the SWING beamline at Soleil Synchrotron (Saclay, France). 50 μl of sample are injected on a Superdex-75 5/150 GL size exclusion column in-line with the SAXS measuring cell. PDZD7 samples are prepared in the same buffer (Phosphate Buffer 50 mM pH 6.5, NaCl 300 mM, TCEP 0.5 mM, anti-proteases). The experiment is performed at initial concentrations of 119 μM (3.1 mg/ml) for P1P2 WT and 108 μM (2.8 mg/ml) for P1P2 G103R. For complexes, 2 μl of pH-adjusted ADGRV1pbm peptide (VELRRIPIADTHL-COOH; 13,7 mM) are added to the 50 μl from the sample 1 hour before recording. Initial data processing was performed using sxCuBE, FOXTROT and PRIMUS. The radii of gyration were evaluated using Guinier approximation. The Dmax was determined from the distance distribution function P(r) obtained with the program GNOM.

The test system of another data set is PDZD7 P1P2 WT. In words: nanoDSF thermostability of P1P2 WT in complex. The format is binding, murine. Conditions: MES pH6 (50 mM), P1P2 WT + ADGRV1pbm 756 μM, unbound Tm 41°C. On the procedure:
as §1

For a further data set, the system named is PDZD7 PDZ1ext WT. Description: nanoDSF thermostability of PDZ1ext WT in complex. The format is binding, murine. Conditions: MES pH6 (50 mM), PDZ1ext WT + ADGRV1pbm 756 μM, unbound Tm 61.6°C. How it is done: as §1
Another data set concerns PDZD7 PDZ2ext WT. In words: nanoDSF thermostability of PDZ2ext WT in complex. The format is binding, murine. Conditions: MES pH6 (50 mM), PDZ2ext WT + ADGRV1pbm 756 μM, unbound Tm 38.5°C. How it is done: as §1
A short description of data set [4]: Aggregation / sample stability of purified PDZ2 constructs. The format is physicochemical. The source says:
The biochemical behavior of PDZD7 PDZ2 drastically differs from PDZ1, with or without its C-terminal extension. […] In order to further establish the accessible folding states of the PDZ2 extension, we used the same metadynamics approach as for PDZ1ext and probed its conformational energy landscape (Figure 3C).

In the next data set the test system is ADGRV1. Conditions: cellular models, PDZ-PBM dependent; ref Hu et al., 2014; cited from earlier work. The text has this: Cochlear hair cells are the primary receptors for the detection of sound-induced vibrations. […] The shape of the bundle is critical for the cohesive deflection of the stereocilia necessary for the cell function. Morphogenesis of the hair bundle is regulated during cochlear development, but the underlying signaling pathways remain elusive. The ankle link protein complex, transiently expressed at the base of the stereocilia, is the main candidate for regulating bundle morphogenesis, with pathogenic varia ... || PDZD7 and ADGRV1 are the main candidate proteins for regulating the signaling associated with the Usher2 complex. PDZD7 is primarily a scaffolding protein, with several protein-protein interaction domains (three PDZ domains and one HHD) likely recruiting several partners at the ankle links anchoring sites ([Du et al., 2018]).

Another data set deals with ADGRV1 β subunit. Description: Pull-down of ADGRV1 β subunit by full-length PDZD7-GFP from HeLa cell lysates. The format is binding, murine. Conditions: PDZD7-GFP bait, anti-GFP beads, 4°C 1 h, western blot, vs no bait. How it is done: HeLa cells were maintained in Dulbecco’s modified Eagle’s medium (DMEM) containing 10% fetal calf serum (FCS). PDZD7 constructs correspond to the full-length murine sequence in fusion with a N-terminal strep tag and a C-terminal GFP, wild-type or carrying G103R/G228R variants, cloned in a PMT3 vector. The ADGRV1 construct corresponds to the murine β subunit of the receptor (5884-6298) cloned in a pRK5 vector. Plasmids were transfected in separate HeLa cultures using 25 μg (PDZD7) and 10 μg (ADGRV1) of DNA per 10 cm dish using TurboFect™ Transfection Reagent (ThermoFisher Scientific) at 3 μl per μg of transfected DNA. Mixes were prepared in volumes of 1 ml/plate (in DMEM), vortexed and incubated up to 30 min at room temperature, cell media were renewed before transfection. After drop by drop addition of the transfection mix, cells were maintained at 37°C for 14 h for protein expression. Cells were dissociated using Gibco™ Trypsine-EDTA (0,05%), subsequently inactivated by addition of DMEM containing 10% FCS. Cells were counted, pelleted and resuspended at similar concentrations in PBS Tween 0.01%, Dodécyl-β-D-maltoside (DDM) 0.1% containing anti-proteases (buffer). Benzonase (Sigma) was added before sonication of the cells (40 mA amplitude, 10 pulses of 12 s with 18 s intervals, in ice). An identical volume of ADGRV1 β transfected cell lysate was mixed to either PDZD7 WT, G103R or G228R transfected cell lysates. PDZ proteins have different expression levels, meaning that different amounts of sample are needed to saturate the dynabeads with the PDZ proteins. Pull down experiments have been performed several times allowing us to estimate the yield of expression of each PDZ construct for a given amount of cells. […] Target proteins were detected using mouse α-GFP (LivingColors™ JL-8, Takara) and rabbit α-ADGRV1 (custom, raised against the cytoplasmic domain) antibodies (1/2000 in 5% milk TBST), as well as secondary α-mouse and α-rabbit IgG antibodies coupled to HRP (1/2000 in 5% milk TBST). […]
(In western blotting, separated proteins are transferred to a membrane and probed.)

B1: P1P2 WT: PDZD7 PDZ tandem (P1P2 construct; A81 to G313) (protein, UniProt E9Q9W7 81-313, looked up, fragment)
chain: SDIIHAVRVEKSPSGRLGFSVRGGSEHGLGIFVSKVEEGSSAERAGLCVGDKITEVNGLSLESTTMGSAVRLLTSSSCLHMMVRRMGRVPGIKFSKEKTTWVDVVNRRLVVEKCSSTPSDRSSEDGVRRIVHLYTTSDDFCLGFNIRGGKEFGLGIYVSKVDHGGLAEENGIKVGDQVLAANGVRFDDISHSQAVEVLKGQTHIMLTIKETGRYPAYKEMVSEYCWLDRLSNG
As to B1, in [1], the sedimentation coefficient was 1.6 Svedberg (S). In addition, the “Tm (Unbound)” value in data set [2] worked out at 41 °C. Also, the “radius of gyration (Rg)” value in data set [3] (Guinier approximation) was determined as 27.8 Å. In addition, the “interatomic maximum distance (Dmax)” value in data set [3] (P(r) with GNOM) amounted to 109.5 Å. In addition, in the data set on PDZD7 P1P2 WT, the “Tm (Bound)” value came to 57.2 °C.

B2: PDZ1ext WT: first PDZ of mouse PDZD7 with its C-terminal extension (A81 to E192) (protein, UniProt E9Q9W7 81-192, looked up, fragment)
chain: SDIIHAVRVEKSPSGRLGFSVRGGSEHGLGIFVSKVEEGSSAERAGLCVGDKITEVNGLSLESTTMGSAVRLLTSSSCLHMMVRRMGRVPGIKFSKEKTTWVDVVNRRLVVE
B2: in data set [2], the “Tm (Unbound)” value amounted to 61.6 °C. Moreover, the “Tm (Bound)” value in the data set on PDZD7 PDZ1ext WT turned out to be 61.8 °C.

B3: PDZ2ext WT: second PDZ of mouse PDZD7 with its C-terminal extension (G206 to G313) (protein)
chain: GVRRIVHLYTTSDDFCLGFNIRGGKEFGLGIYVSKVDHGGLAEENGIKVGDQVLAANGVRFDDISHSQAVEVLKGQTHIMLTIKETGRYPAYKEMVSEYCWLDRLSNG
modifications: left off: GST, N-terminal, cleaved
For the molecule B3, the “Tm (Bound)” value in the data set with PDZD7 PDZ2ext WT was determined as 47.2 °C. In addition, the “Tm (Unbound)” value in [2] is 38.5 °C. In addition, in [4] (15N-labelled PDZ2 constructs, NMR), the sample stability result is reported as “stable for a few hours only”. Further, in data set [4] (at temperatures higher than 15 °C, despite extensive screening of buffer conditions), the aggregation result is “Rapid aggregation”.

B4: WT PDZD7: full-length murine PDZD7 in fusion with N-terminal strep tag and C-terminal GFP (pull-down) (protein)
chain: MARGFTVGFDPLGLGELSSGSLSSVSSRGHLGSDSGSTATRYLLRKQQRLLNGPSRGIRASSPMGRVILINSPIEANSDESDIIHAVRVEKSPSGRLGFSVRGGSEHGLGIFVSKVEEGSSAERAGLCVGDKITEVNGLSLESTTMGSAVRLLTSSSCLHMMVRRMGRVPGIKFSKEKTTWVDVVNRRLVVEKCSSTPSDRSSEDGVRRIVHLYTTSDDFCLGFNIRGGKEFGLGIYVSKVDHGGLAEENGIKVGDQVLAANGVRFDDISHSQAVEVLKGQTHIMLTIKETGRYPAYKEMVSEYCWLDRLSNGVLQQLSPASESSSSVSSYASSAPCSSGSLPSDRMDVCLGPEEPTSHGPGWGRADTAMQTEPDLDSRVETWCSVRPTVILRDTAIRSDGPSSTRHLDSALSESPKTALLLALSRPRTPITRSQSHLTLWEEKKQRKKEKSGSSGEKGALQRSKTLMNLFFKGGRQGRPAGDGHREAWTLDSRSPTKVRPRLDLEKAGSVGPVQKFVTWRLRRDRERGRALLSARSGSPSGQAPTVNEQVQAWESRRPLIQDLARRLLTDDEVLAVTRHCSRYVHEGGVEDLVRPLLAILDRPTKLLLLRDIRSVVAPTDLGRFDSMVMPVELEAFEALKSRAVGPSALRPTRQDTPPKRHLITPVPDSRGGFYLLPVNSSEDEDGEIREKLGVLKVSLGASAPHHKGIPPLQDVPVDAFSLRRGACAPPPQPPPVAPRPPRPNWLLTEPLSREDTQQNQSQTPAQSCSRSRSRSRSRSHSRGQGKSPGRRRSPSPAPIATAATANGRYHRPRKARPLLPRLLDGQVAKVGARQGPLENGRIAEEAVGNVSTGALRTITLSKMKQSLGISISGGIESKVQPMVKIEKIFPGGAAFLCGDLQAGFELVAVDGESLEQVTHQRAVDTIRRAYRNKAREPMELVVRVPGPGLLPLASDLRVVKDQSLAPDCPSALGPVDDARILTQLPPPEARQLQQSLSSALKVPQSIPKLSPILKDPHDPS
modifications: left off: strep tag, N-terminal, kept | GFP, C-terminal, kept
With B4, in the data set on ADGRV1, the “effect on ADGRV1 GPCR activity” value is “downregulates the GPCR activity and restores cAMP levels; also recorded: downregulates ADGRV1 GPCR activity”. Moreover, the “binding of ADGRV1 β subunit (pull-down)” value in the data set with ADGRV1 β subunit is “a clear band is observed”.
